Test results as given in patent US20230340128A1 (Xencor, published 2023).
Read-outs that look alike come from different tables or passages of the source.

Assays:
human mesothelin (MSLN) [1] = target: T1, human mesothelin (MSLN) (human, UniProt Q13421 296-580, limits assumed); experiment: BLI (Octet), multiple concentrations, bsAb in 1+1 Fab-scFv-Fc format
T1 construct: Antigen of the Octet KD values

human CD28 [2] = target: T2, human CD28 (human, UniProt P10747 19-152, limits assumed); experiment: label in the legend box: nominal affinity of the CD28 binding domain (paragraph 422 calls such label values KD); method not stated on the sheet
T2 construct: also called Cluster of Differentiation 28; Tp44

human mesothelin (MSLN) [3] = target: T1, human mesothelin (MSLN); experiment: label in the legend box: nominal affinity of the MSLN binding domain (paragraph 422 calls such label values KD); method not stated on the sheet
[4] = target: T3, MSLN on OVCAR8 cells (~90K MSLN antigens/cell) (UniProt Q13421 296-598); experiment: flow cytometry on OVCAR8 cells, 1 h at 4 C, anti-human-Fc A647 secondary
T3 construct: whole, on cells; Endogenous expression on a cancer cell line
Procedure: In this experiment, 50,000 OVCAR8 cells (˜90K MSLN antigens/cell) were seeded per well in a plate. Anti-human-Fc secondary (A647) was added for 30 min at 4° C., and binding was assessed via FACs. FIG. 39C depicts that the CD28×MSLN bsAbs in neither 1+1-Fab-scFv format nor the 2+1 mAb-scFv format antibodies show any significant off target binding. In this experiment, 50,000 SKOV3 cells (˜9K MSLN antigens/cell) were seeded per well in a plate. Anti-human-Fc secondary (A647) was added for 30 min at 4° C., and binding was assessed via FACs.
In order to assess the binding of MSLN×CD28 bsAbs in different formats, an experiment was conducted in which 50,000 OVCAR8 cells (˜90K MSLN antigens/cell) were seeded per well in a plate. Anti-human-Fc secondary (A647) was added for 30 min at 4° C., and binding was assessed via FACs.

human CD28 [5] = target: T2, human CD28; experiment: label in the legend box: nominal affinity of the CD28 binding domain (paragraph 422 calls such label values KD); method not stated on the sheet; remark: listed apart in the source
human mesothelin (MSLN) [6] = target: T1, human mesothelin (MSLN); experiment: label in the legend box: nominal affinity of the MSLN binding domain (paragraph 422 calls such label values KD); method not stated on the sheet; remark: listed apart in the source

B1: XENP32937 (bispecific antibody)
chain 1: QVQLVQSGAEVKKPGASVKVSCKASGYTFTSYWMHWVRQAPGQGLEWMGMIHPNSDNTIYYQKFQGRVTMTVDKSISTAYMELSRLRSDDTAVYYCAIIITPVVPKFDYWGQGTLVTVSSASTKGPSVFPLAPSSKSTSGGTAALGCLVKDYFPEPVTVSWNSGALTSGVHTFPAVLQSSGLYSLSSVVTVPSSSLGTQTYICNVNHKPSDTKVDKKVEPKSCDKTHTCPPCPAPPVAGPSVFLFPPKPKDTLMISRTPEVTCVVVDVKHEDPEVKFNWYVDGVEVHNAKTKPREEEYNSTYRVVSVLTVLHQDWLNGKEYKCKVSNKALPAPIEKTISKAKGQPREPQVYTLPPSREEMTKNQVSLTCDVSGFYPSDIAVEWESDGQPENNYKTTPPVLDSDGSFFLYSKLTVDKSRWEQGDVFSCSVMHEALHNHYTQKSLSLSPGK
chain 2: not shown
chain 3: DIVMTQSPDSLAVSLGERATINCKASHDVGTSVAWYQQKPGQSPKLLIYWASTRHTGVPDRFTGSGSGTDFTLTISSLQAEDVAVYFCQQYYSYPLTFGAGTKLEIKRTVAAPSVFIFPPSDEQLKSGTASVVCLLNNFYPREAKVQWKVDNALQSGNSQESVTEQDSKDSTYSLSSTLTLSKADYEKHKVYACEVTHQGLSSPVTKSFNRGEC
Human mesothelin (MSLN) [1]
  Kd: 10.2 nM
  koff: 0.00822 s⁻¹
  kon: 803000 M⁻¹ s⁻¹

B2: XENP39534 (bispecific antibody)
heavy 1: QVQLVQSGAEVKKPGASVKVSCKASGYTFTSYWMHWVRQAPGQGLEWMGMIHPNSDNTIYYEKFQGRVTMTVDKSISTAYMELSRLRSDDTAVYYCAIIITPVVPKFDYWGQGTLVTVSSASTKGPSVFPLAPSSKSTSGGTAALGCLVKDYFPEPVTVSWNSGALTSGVHTFPAVLQSSGLYSLSSVVTVPSSSLGTQTYICNVNHKPSDTKVDKKVEPKSCDKTHTCPPCPAPPVAGPSVFLFPPKPKDTLMISRTPEVTCVVVDVKHEDPEVKFNWYVDGVEVHNAKTKPREEEYNSTYRVVSVLTVLHQDWLNGKEYKCKVSNKALPAPIEKTISKAKGQPREPQVYTLPPSREEMTKNQVSLTCDVSGFYPSDIAVEWESDGQPENNYKTTPPVLDSDGSFFLYSKLTVDKSRWEQGDVFSCSVLHEALHSHYTQKSLSLSPGK
heavy 2: not shown
light 1: DIVMTQSPDSLAVSLGERATINCKASHDVGTSVAWYQQKPGQSPKLLIYWASTRHTGVPDRFTGSGSGTDFTLTISSLQAEDVAVYFCQQYSSYPLTFGAGTKLEIKRTVAAPSVFIFPPSDEQLKSGTASVVCLLNNFYPREAKVQWKVDNALQSGNSQESVTEQDSKDSTYSLSSTLTLSKADYEKHKVYACEVTHQGLSSPVTKSFNRGEC
light 2: DIVMTQSPDSLAVSLGERATINCKASHDVGTSVAWYQQKPGQSPKLLIYWASTRHTGVPDRFTGSGSGTDFTLTISSLQAEDVAVYFCQQYSSYPLTFGAGTKLEIKRTVAAPSVFIFPPSDEQLKSGTASVVCLLNNFYPREAKVQWKVDNALQSGNSQESVTEQDSKDSTYSLSSTLTLSKADYEKHKVYACEVTHQGLSSPVTKSFNRGEC
notes: also called XENP39534 MSLN (0.3 nM) x CD28 (180 nM) 2+1 mAb-scFv
Human CD28 [2]
  Kd: 180 nM
Human mesothelin (MSLN) [3]
  Kd: 0.3 nM

B3: XENP39570 (bispecific antibody)
heavy: QVQLVQSGAEVKKPGASVKVSCKASGYTFTSYWMHWVRQAPGQGLEWMGWIHPNSDNTIYYEKFQGRVTMTVDKSISTAYMELSRLRSDDTAVYYCAIIITPVVPKFDYWGQGTLVTVSSASTKGPSVFPLAPSSKSTSGGTAALGCLVKDYFPEPVTVSWNSGALTSGVHTFPAVLQSSGLYSLSSVVTVPSSSLGTQTYICNVNHKPSDTKVDKKVEPKSCDKTHTCPPCPAPPVAGPSVFLFPPKPKDTLMISRTPEVTCVVVDVKHEDPEVKFNWYVDGVEVHNAKTKPREEEYNSTYRVVSVLTVLHQDWLNGKEYKCKVSNKALPAPIEKTISKAKGQPREPQVYTLPPSREEMTKNQVSLTCDVSGFYPSDIAVEWESDGQPENNYKTTPPVLDSDGSFFLYSKLTVDKSRWEQGDVFSCSVLHEALHSHYTQKSLSLSPGK
scFv-Fc: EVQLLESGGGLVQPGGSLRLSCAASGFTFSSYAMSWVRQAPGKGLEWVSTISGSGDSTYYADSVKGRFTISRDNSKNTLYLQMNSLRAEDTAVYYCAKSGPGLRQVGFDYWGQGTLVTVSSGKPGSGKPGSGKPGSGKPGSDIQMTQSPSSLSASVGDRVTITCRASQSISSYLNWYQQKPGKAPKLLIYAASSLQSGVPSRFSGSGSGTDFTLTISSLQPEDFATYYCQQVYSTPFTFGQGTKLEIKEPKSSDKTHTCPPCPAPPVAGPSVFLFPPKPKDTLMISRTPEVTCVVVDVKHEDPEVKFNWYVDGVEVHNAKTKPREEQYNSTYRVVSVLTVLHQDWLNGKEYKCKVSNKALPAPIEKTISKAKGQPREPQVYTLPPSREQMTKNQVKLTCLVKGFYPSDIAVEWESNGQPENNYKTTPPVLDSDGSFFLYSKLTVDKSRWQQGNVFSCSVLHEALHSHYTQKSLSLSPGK
light: DIVMTQSPDSLAVSLGERATINCKASHDVGQSVAWYQQKPGQSPKLLIYWASTRHTGVPDRFTGSGSGTDFTLTISSLQAEDVAVYFCQQYSSYPLTFGAGTKLEIKRTVAAPSVFIFPPSDEQLKSGTASVVCLLNNFYPREAKVQWKVDNALQSGNSQESVTEQDSKDSTYSLSSTLTLSKADYEKHKVYACEVTHQGLSSPVTKSFNRGEC
notes: also called XENP39570 MSLN (90 nM) x CD28 (180 nM) 1+1 Fab-scFv-Fc
Human CD28 [2]
  Kd: 180 nM
Human mesothelin (MSLN) [3]
  Kd: 90 nM

B4: XENP44469 (bispecific antibody)
heavy 1: QVQLVQSGAEVKKPGASVKVSCKASGYTFTSYWMHWVRQAPGQGLEWMGMIHPNSDNTIYYEKFQGRVTMTVDKSISTAYMELSRLRSDDTAVYYCAIIITPVVPKFDYWGQGTLVTVSSASTKGPSVFPLAPSSKSTSGGTAALGCLVKDYFPEPVTVSWNSGALTSGVHTFPAVLQSSGLYSLSSVVTVPSSSLGTQTYICNVNHKPSDTKVDKKVEPKSCDKTHTCPPCPAPPVAGPSVFLFPPKPKDTLMISRTPEVTCVVVDVKHEDPEVKFNWYVDGVEVHNAKTKPREEEYNSTYRVVSVLTVLHQDWLNGKEYKCKVSNKALPAPIEKTISKAKGQPREPQVYTLPPSREEMTKNQVSLTCDVSGFYPSDIAVEWESDGQPENNYKTTPPVLDSDGSFFLYSKLTVDKSRWEQGDVFSCSVLHEALHSHYTQKSLSLSPGK
heavy 2: not shown
light 1: DIVMTQSPDSLAVSLGERATINCKASHDVGTSVAWYQQKPGQSPKLLIYWASTRHTGVPDRFTGSGSGTDFTLTISSLQAEDVAVYFCQQYSSYPLTFGAGTKLEIKRTVAAPSVFIFPPSDEQLKSGTASVVCLLNNFYPREAKVQWKVDNALQSGNSQESVTEQDSKDSTYSLSSTLTLSKADYEKHKVYACEVTHQGLSSPVTKSFNRGEC
light 2: DIVMTQSPDSLAVSLGERATINCKASHDVGTSVAWYQQKPGQSPKLLIYWASTRHTGVPDRFTGSGSGTDFTLTISSLQAEDVAVYFCQQYSSYPLTFGAGTKLEIKRTVAAPSVFIFPPSDEQLKSGTASVVCLLNNFYPREAKVQWKVDNALQSGNSQESVTEQDSKDSTYSLSSTLTLSKADYEKHKVYACEVTHQGLSSPVTKSFNRGEC
notes: also called XENP44469 MSLN (0.3 nM) x CD28 (180 nM) 2+1 Fab2-scFv-Fc
[4]
  EC50 (read off the curve): ~4 ng/mL
Human CD28 [5]
  Kd: 180 nM
Human mesothelin (MSLN) [6]
  Kd: 0.3 nM

B5: XENP44475 (bispecific antibody)
heavy: QVQLVQSGAEVKKPGASVKVSCKASGYTFTSYWMHWVRQAPGQGLEWMGMIHPNSDNTIYYEKFQGRVTMTVDKSISTAYMELSRLRSDDTAVYYCAIIITPVVPKFDYWGQGTLVTVSSASTKGPSVFPLAPSSKSTSGGTAALGCLVKDYFPEPVTVSWNSGALTSGVHTFPAVLQSSGLYSLSSVVTVPSSSLGTQTYICNVNHKPSDTKVDKKVEPKSCGGGGSGGGGSQVQLVQSGAEVKKPGASVKVSCKASGYTFTSYWMHWVRQAPGQGLEWMGMIHPNSDNTIYYEKFQGRVTMTVDKSISTAYMELSRLRSDDTAVYYCAIIITPVVPKFDYWGQGTLVTVSSASTKGPSVFPLAPSSKSTSGGTAALGCLVKDYFPEPVTVSWNSGALTSGVHTFPAVLQSSGLYSLSSVVTVPSSSLGTQTYICNVNHKPSDTKVDKKVEPKSCDKTHTCPPCPAPPVAGPSVFLFPPKPKDTLMISRTPEVTCVVVDVKHEDPEVKFNWYVDGVEVHNAKTKPREEEYNSTYRVVSVLTVLHQDWLNGKEYKCKVSNKALPAPIEKTISKAKGQPREPQVYTLPPSREEMTKNQVSLTCDVSGFYPSDIAVEWESDGQPENNYKTTPPVLDSDGSFFLYSKLTVDKSRWEQGDVFSCSVLHEALHSHYTQKSLSLSPGK
scFv-Fc: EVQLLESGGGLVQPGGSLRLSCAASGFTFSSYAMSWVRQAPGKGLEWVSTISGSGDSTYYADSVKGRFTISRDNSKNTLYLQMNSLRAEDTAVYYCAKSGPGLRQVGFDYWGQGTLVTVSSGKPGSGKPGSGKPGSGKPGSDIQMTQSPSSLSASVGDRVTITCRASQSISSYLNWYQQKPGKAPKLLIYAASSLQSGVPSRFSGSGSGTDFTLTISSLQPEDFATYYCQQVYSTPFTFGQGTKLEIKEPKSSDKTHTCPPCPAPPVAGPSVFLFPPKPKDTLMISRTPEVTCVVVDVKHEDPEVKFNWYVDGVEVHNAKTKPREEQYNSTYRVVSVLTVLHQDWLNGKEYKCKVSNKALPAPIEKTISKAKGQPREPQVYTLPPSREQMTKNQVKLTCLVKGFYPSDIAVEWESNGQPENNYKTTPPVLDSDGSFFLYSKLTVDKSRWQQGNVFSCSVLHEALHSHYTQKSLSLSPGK
light 1: DIVMTQSPDSLAVSLGERATINCKASHDVGTSVAWYQQKPGQSPKLLIYWASTRHTGVPDRFTGSGSGTDFTLTISSLQAEDVAVYFCQQYSSYPLTFGAGTKLEIKRTVAAPSVFIFPPSDEQLKSGTASVVCLLNNFYPREAKVQWKVDNALQSGNSQESVTEQDSKDSTYSLSSTLTLSKADYEKHKVYACEVTHQGLSSPVTKSFNRGEC
light 2: DIVMTQSPDSLAVSLGERATINCKASHDVGTSVAWYQQKPGQSPKLLIYWASTRHTGVPDRFTGSGSGTDFTLTISSLQAEDVAVYFCQQYSSYPLTFGAGTKLEIKRTVAAPSVFIFPPSDEQLKSGTASVVCLLNNFYPREAKVQWKVDNALQSGNSQESVTEQDSKDSTYSLSSTLTLSKADYEKHKVYACEVTHQGLSSPVTKSFNRGEC
notes: also called XENP44475 MSLN (0.3 nM) x CD28 (180 nM) 2+1 Fab2-Fc x scFv-Fc
[4]
  EC50 (read off the curve): ~5 ng/mL
Human CD28 [5]
  Kd: 180 nM
Human mesothelin (MSLN) [6]
  Kd: 0.3 nM
